Data from patent US12157773 (SYNTHEKINE, dated 2024).

T1: hIL27Rα ECD antigen (human, UniProt Q6UWB1 33-516)
T1 construct: Antigen of biopanning and PE-ELISA; also called ECD of the human IL27Rα; IL27Rα coated on the plate
T1 sequence: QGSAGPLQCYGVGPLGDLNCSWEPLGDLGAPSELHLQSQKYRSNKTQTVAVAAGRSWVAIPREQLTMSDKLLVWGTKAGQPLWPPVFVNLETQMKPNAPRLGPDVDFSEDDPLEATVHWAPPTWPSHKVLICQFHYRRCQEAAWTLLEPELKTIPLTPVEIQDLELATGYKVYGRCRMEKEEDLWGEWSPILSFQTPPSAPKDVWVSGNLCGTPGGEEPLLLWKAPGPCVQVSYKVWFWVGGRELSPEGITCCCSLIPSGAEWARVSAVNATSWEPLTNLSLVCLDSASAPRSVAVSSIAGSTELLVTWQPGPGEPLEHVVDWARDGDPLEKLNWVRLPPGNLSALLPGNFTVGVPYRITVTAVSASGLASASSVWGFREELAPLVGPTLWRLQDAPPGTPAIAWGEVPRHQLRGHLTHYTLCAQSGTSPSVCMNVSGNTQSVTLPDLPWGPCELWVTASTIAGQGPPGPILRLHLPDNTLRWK

B1: hIL27Ra VHH4 (VHH)
VHH: QVQLQESGGGLVQPGESLRLSCTASGFTFSNYAMSWVRQAPGKGLEWVSGINVAYGITSYADSVKGRFTISRDNTKNTLYLQLNSLKTEDTAIYYCVKHSGTTIPRGFISYTKRGQGTQVTVSS
notes: Camel VHH as periplasmic extract of a phage clone in the PE-ELISA; also called anti-human IL27Rα VHH; not shown: HA/His tag from the pMECS phagemid
B2: hIL27Ra VHH10 (VHH)
VHH: QVQLQESGGGSVQAGGSLRLSCRASGSTYSNYCLGWFRQITGKEREGVAVINWVGGMLYFADSVKGRFTVSQDQAKNTLYLQMNSLKPEDTAMYYCAAESVSSFSCGGWLTRPDRVPYWGQGTQVTVSS
notes: as for B1
B3: hIL27Ra VHH23 (VHH)
VHH: QVQLQESGGGSVQAGGSLRLSCRASRSPYGNYCLGWFRQSTGKEREGVAVINWVGGMLYFADSVKGRFTVSQDHAKNTVTLQMNSLKPEDTAMYYCAAESVSSFSCGGWLTRPDRVPYWGQGTQVTVSS
notes: as for B1
B4: hIL27Ra VHH11 (VHH)
VHH: QVQLQESGGGSVQAGGSLRLSCRASGSTYSNYCLGWFRQSTGKEREGVAVINWVGGMLYFADSVKGRFTVSQDHAKNTVTLQMNSLKPEDTAMYYCAAESVSSFSCGGWLTRPGRVPYWGQGTQVTVSS
notes: as for B1
B5: hIL27Ra VHH16 (VHH)
VHH: QVQLQESGGGSVQAGGSLRLSCRASGSTYSNYCLGWFRQITGKEREGVAVINWVGGMLYFADSVKGRFTVSQDQAKNTVYLQMNSLKPEDTAMYYCAAESASSFSCGGWLTRPDRVPYWGQGTQVTVSS
notes: as for B1
B6: hIL27Ra VHH12 (VHH)
VHH: QVQLQESGGGSVQAGESLRLSCRASGSTYSNYCLGWFRQITGKEREGVAVINWVGGMLYFADSVKGRFTVSQDQAKNTVYLEMNSLKPEDTAMYYCATESVSSFSCGGWLTRPDRVPYWGQGTQVTVSS
notes: as for B1
B7: hIL27Ra VHH22 (VHH)
VHH: QVQLQESGGGSVQAGGSLRLSCRASGSTYSNYCLGWFRQTTGKEREGVAVINWVGGMLYFADSVKGRFTVSQDQAKNTVYLQMNSLKPEDTAMYYCAAESVSSFSCGGWLTRPDRVPYWGQGTQVTVSS
notes: as for B1
B8: hIL27Ra VHH6 (VHH)
VHH: QVQLQESGGGLVQPGGSLRLSCAASGFSFSSYAMKWVRQAPGKGLEWVSTISSGGSSTNYADSVKGRFTISRDNAKNTLYLQLNSLKIEDTAMYYCAKAIVPTGATMERGQGTQVTVSS
notes: as for B1
B9: hIL27Ra VHH17 (VHH)
VHH: QVQLQESGGGLVQPGGSLRLSCAASGFTFSLSGMSWVRQAPGKGLEWVSAISSGGASTYYTDSVKGRFTISRDNAKNMLYLQLNSLKTEDTAMYYCAKGGSGYGDASRMTSPGSQGTQVTVSS
notes: as for B1
B10: hIL27Ra VHH24 (VHH)
VHH: QVQLQESGGGLVQPGGSLRLSCAASGFTFSHSGMSWVRQAPGKGLEWVSTINSGGASTYYTDSVKGRFTISRDNAKNMLYLQLNSLKTEDTAMYYCAKGGSGYGDASRMTSPGSQGTQVTVSS
notes: as for B1
B11: hIL27Ra VHH2 (VHH)
VHH: QVQLQESGGGLVQPGGSLRLSCAASGFTFSLSGMSWVRQAPGKGLEWVSAISSGGASTYYTDSVKGRFTISRDNAKNILYLQLNSLKTEDTAMYYCAKGGSGYGDASRMTSPGSQGTQVTVSS
notes: as for B1
B12: hIL27Ra VHH14 (VHH)
VHH: QVQLQESGGGSVQAGGSLRLSCVASGYVSCDYFLPSWYRQAPGKEREFVSIIDGTGSTSYAASVKGRFTASQDKGKNIAYLQMNSLKPEDTAMYYCKASCVRGRAISEYWGQGTQVTVSS
notes: as for B1

Biological target: T1, hIL27Rα ECD antigen
Experiment: PE-ELISA, periplasmic extract on antigen-coated plate
Protocol: Upon completion of the biopanning of Example 3, three 96-well plates of individual phage clones were isolated in order to perform periplasmic extract ELISA (PE-ELISA) on IL27Rα coated plates to identify positive VHH binders that selectively bound […]. A 96-well plate was coated with IL27Rα and PBS under the same conditions. Next, wells were blocked at 37° C. for 1 h. Then, 100 µl of extracted antibodies was added to each well and incubated for 1 h. Subsequently, 100 µl of anti-tag polyclonal antibody conjugated to HRP was added to each well and incubated at 37° C. for 1 h. Plates were developed with TMB substrate. The reaction was stopped by the addition of H2SO4. Absorbance at 450 nm was read on a microtiter plate reader. […] Positive clones were sequenced, and sequences analyzed to identify unique clonotypes.

| Binder | binding result |
| --- | --- |
| B1 | binds |
| B2 | binds |
| B3 | binds |
| B4 | binds |
| B5 | binds |
| B6 | binds |
| B7 | binds |
| B8 | binds |
| B9 | binds |
| B10 | binds |
| B11 | binds |
| B12 | binds |
